Source: paper PMC11915804, “In situ structures of the contractile nanomachine myophage Mu in both its extended and contracted states” (Journal of Virology, 2025)

B1: tube initiator protein gp43 (natural protein, phage Mu, UniProt P08557 1-495, looked up)
chain: MFEDALNAVNAVRDKTGGGRKTTGKGTFRNVPFLVIEEQKQAGGRRLVKREYPLRDTGGVNDLGKKLRSRTFSACILNSNAETARDEAGALMDALDAPGSGELVHPDFGTVDVMVDSWECRTKADELNYYAFTVTVYPSLQDTAPDAETDTSAAVPAQAVAVTGSLGDTLSSVWQTVKDGTAAATAVMEAVTGVIDDISDAVDNLGVTQTVSGLMGSLSAMKGSVTSLINQPAMLASSLMGALSGVSSLCDTRTAFSTWNRLAQRFERRHAATAGRQGTITTSYNSPVAEKNIATLNYVMLAAAQTYRAEAASQALTAALDFSRRMDNAARAPVLDAPSTTTGTASGASSTSATVTQGQLQLTAITPDGGFSQVSFSDSGTATPPVFESVSDIEKTTAMLGAALDSVILTASEQGFSTDSVQLTQLRLLVVADLEKRGLQLAGSESHHLPETLPAMVALYRFTGNSRNWQRLARRNGISNPLFVPGGVSIEVINE
notes: tube initiator protein gp43 (N protein, DNA circularization protein) of myophage Mu, as it stands in the virion; Hexamer; Model deposited here; also called N protein; DNA circularization protein; source: phage Mu virions grown on E. coli (ATCC 23724), purified (PEG 8000/NaCl precipitation, CsCl gradient)
B5: tail sheath protein gp39 (natural protein, phage Mu, UniProt P79678 1-495, looked up)
chain: MSDISFNAIPSDVRVPLTYIEFDNSNAVSGTPAPRQRVLMFGQSGSKASAAPNVPVRIRSGSQASAAFGQGSMLALMADAFLNANRVAELWCIPQGNGTGNAAVGEISLSGTAGENGSLVTYIAGQRLAVSVAAGATGAALADLLVARIKGQPDLPVTAEVRADSGDDDTHADVVLSAKFTGALSAVDVRWNYYAGETTPYGIITAFKAASGKNGNPDISASIAGMGDLQYKYIVMPYTDEPNLNLLRTELQERWGPVNQADGFAVTVLSGTYGDISTFGVSRNDHLISCMGIAGAPEPSYLYAATLCAVASQALSIDPARPLQTLTLPGRMPPAVGDRFTWSERNALLFDGISTFNVNDGGEMQIERMITMYRTNKYGDSDPSYLNVNTIATLSYLRYSLRTRITQKFPNYKLASDGTRFATGQAVVTPSVIKTELLALFEEWENAGLVEDFDTFKEELYVARNKDDKDRLDVLCGPNLINQFRIFAAQVQFIL
notes: tail sheath protein gp39 of myophage Mu, as it stands in the virion; Hexameric rings, 30 of them stacked in the tail; Model deposited here; source: phage Mu virions grown on E. coli (ATCC 23724), purified (PEG 8000/NaCl precipitation, CsCl gradient)

How the values were obtained:
Test in all cases: cryo-EM structure; purified phage Mu virions in the extended state (native phage) in phage buffer (10 mM MgCl2, 5 mM NaCl, 10 mM Tris-HCl, pH 7.4); icosahedral, symmetry-mismatch and local reconstruction; 3.2 Å (3-fold capsid), 3.4 Å (portal-adaptor), 3.5 Å (terminator-tail), 3.3 Å (baseplate)
[1] = molecular target: tape measure protein (TMP) gp42 (phage Mu)
[2] = molecular target: tail terminator protein gp37 (phage Mu)
[3] = molecular target: adaptor protein gp36 (phage Mu)
[4] = molecular target: major capsid protein (MCP) gp34 (phage Mu)
[5] = molecular target: the molecule itself
[6] = molecular target: B1; conditions: both partners purified
[7] = molecular target: B5; conditions: both partners purified

## tape measure protein (TMP) gp42 (natural protein)
[1]
  stoichiometry N: 3

## tail terminator protein gp37 (natural protein)
[2]
  stoichiometry N: 6

## adaptor protein gp36 (natural protein)
[3]
  stoichiometry N: 12

## major capsid protein (MCP) gp34 (natural protein)
[4]
  stoichiometry N: 415

## B1
[5]
  stoichiometry N: 6

B2: baseplate wedge protein 2 (BW2) gp47 (natural protein, phage Mu, UniProt Q9T1V2 1-360, looked up)
chain: MAYSPPTLSSLIARTEQNIEQRLPGSWPQAREKTLSAIAYAQAGLAAGCHEHISWVGRQIIPSTADEDELLEHCRFWGVRRKQATAASGPLTVTTSAATTIPAGTRWQRADGVVYSLADTIVIDRAGTTEITVTALAAGEAGNTGENTLLTLITPVACVVSDAITVKGFSGGADIESAAELLSRLEYRVQYPPFGGNQFDYVRWAREVSGVTRAWCFPTWKGGGTVGVTFVMDNRSNIFPQPADVERVADYIAGHTDPITGLIVGQPDGVNVTVFAPKAKPVNPRIYISPKTAELKQAITNAINTMFFNEVMPGGALAPSRIIRAVAGVTGLDDFEVRFPTEIQRSENTELLTAGTIEWL
notes: baseplate wedge protein 2 gp47 of myophage Mu, as it stands in the virion; Two conformers (BW2-i, BW2-o) in each of the six wedges; Model deposited here; also called BW2-i; BW2-o; source: phage Mu virions grown on E. coli (ATCC 23724), purified (PEG 8000/NaCl precipitation, CsCl gradient)
[6]
  binding result: binds
[5]
  binding result: binds

B3: portal protein gp29 (natural protein, phage Mu, UniProt Q9T1W5 1-512, looked up)
chain: MGRILDISGQPFDFDDEMQSRSDELAMVMKRTQEHPSSGVTPNRAAQMLRDAERGDLTAQADLAFDMEEKDTHLFSELSKRRLAIQALEWRIAPARDASAQEKKDADMLNEYLHDAAWFEDALFDAGDAILKGYSMQEIEWGWLGKMRVPVALHHRDPALFCANPDNLNELRLRDASYHGLELQPFGWFMHRAKSRTGYVGTNGLVRTLIWPFIFKNYSVRDFAEFLEIYGLPMRVGKYPTGSTNREKATLMQAVMDIGRRAGGIIPMGMTLDFQSAADGQSDPFMAMIGWAEKAISKAILGGTLTTEAGDKGARSLGEVHDEVRREIRNADVGQLARSINRDLIYPLLALNSDSTIDINRLPGIVFDTSEAGDITALSDAIPKLAAG
notes: portal protein gp29 of myophage Mu, as it stands in the virion; Dodecamer; Model deposited here; source: phage Mu virions grown on E. coli (ATCC 23724), purified (PEG 8000/NaCl precipitation, CsCl gradient); copies: 12
[5]
  stoichiometry N: 12

B4: tail tube protein gp40 (natural protein, phage Mu, UniProt P79679 1-118, looked up)
chain: MAGNQRQGVAFIRVNGMELESMEGASFTPSGITREEVTGSRVYGWKGKPRAAKVECKIPGGGPIGLDEIIDWENITVEFQADTGETWMLANAWQADEPKNDGGEISLVLMAKQSKRIA
notes: tail tube protein gp40 of myophage Mu, as it stands in the virion; Hexameric rings, 30 of them stacked in the tail; Model deposited here; source: phage Mu virions grown on E. coli (ATCC 23724), purified (PEG 8000/NaCl precipitation, CsCl gradient)
[7]
  binding result: binds
[5]
  stoichiometry N: 6

## B5
[5]
  stoichiometry N: 6

B6: hub protein gp44 (natural protein, phage Mu, UniProt P08558 1-379, looked up)
chain: MSNTVTLRADGRLFTGWTSVSVTRSIESVAGYFELGVNVPPGTDLSGLAPGKKFTLEIGGQIVCTGYIDSRRRQMTADSMKITVAGRDKTADLIDCAAVYSGGQWKNRTLEQIARDLCAPYGVTVRWELSDKESSAAFPGFTLDHSETVYEALVRASRARGVLMTSNAAGELVFSRAASTATDELVLGENLLTLDFEEDFRDRFSEYTVKGYARANGAEGDDIDAKSIVSRKGTATDSDVTRYRPMIIIADSKITAKDAQARALREQRRRLAKSITFEAEIDGWTRKDGQLWMPNLLVTIDASKYAIKTTELLVSKVTLILNDQDGLKTRVSLAPREGFLVPVESDRKNRKGGDSNGGIDALVEDYYRRHPEKTPPWKE
notes: baseplate hub protein gp44 of myophage Mu, as it stands in the virion; Trimer; Model deposited here; source: phage Mu virions grown on E. coli (ATCC 23724), purified (PEG 8000/NaCl precipitation, CsCl gradient)
[5]
  stoichiometry N: 3

B7: G(+) type fiber protein gp49 (natural protein, phage Mu, UniProt Q9T1V0 1-504, looked up)
chain: MFYIDNDSGVTVMPPVSAQRSAIVRWFSEGDGNNVITWPGMDWFNIVQAELLNTLEEAGIQPDKTKLNQLALSIKAIMSNNALLIKNNLSEIKTAGASAQRTARENLDIYDASLNKKGLVQLTSATDSPSETLAATAKAVKIAMDNANARLAKDRNGADIPNKPLFIQNLGLQETVNRARNAVQKNGDTLSGGLTFENDSILAWIRNTDWAKIGFKNDADSDTDSYMWFETGDNGNEYFKWRSKQSTTTKDLMNLKWDALSVLVNAIVNGEVISKSANGLRIAYGNYGFFIRNDGSNTYFMLTNSGDNMGTYNGLRPLWINNATGAVSMGRGLNVSGDTLSDRFAINSSNGMWIQMRDNNAIFGKNIVNTDSAQALLRQNHADRKFMIGGLGNKQFGIYMINNSRTANGTDGQAYMDNNGNWLCGAQVIPGNYANFDSRYVRDVRLGTQSLTGGLSRDYKAPSGHVITGFHTNGDWEMQGGDDKVYIRPVQKNINGTWYNVASA
notes: G(+) type tail fiber protein gp49 of myophage Mu, as it stands in the virion; only the N-terminus was modelled; Trimer; six fibers in the baseplate; Model deposited here; source: phage Mu virions grown on E. coli (ATCC 23724), purified (PEG 8000/NaCl precipitation, CsCl gradient)
[5]
  stoichiometry N: 3
